The record followed here is patent publication US20160009804A1.

The test addresses vascular endothelial growth factor receptor-1 (VEGFR-1) (human) (UniProt P17948). Kind of test: cell-based or functional assay.
Sequence of UniProt P17948 (P17948 27-1338): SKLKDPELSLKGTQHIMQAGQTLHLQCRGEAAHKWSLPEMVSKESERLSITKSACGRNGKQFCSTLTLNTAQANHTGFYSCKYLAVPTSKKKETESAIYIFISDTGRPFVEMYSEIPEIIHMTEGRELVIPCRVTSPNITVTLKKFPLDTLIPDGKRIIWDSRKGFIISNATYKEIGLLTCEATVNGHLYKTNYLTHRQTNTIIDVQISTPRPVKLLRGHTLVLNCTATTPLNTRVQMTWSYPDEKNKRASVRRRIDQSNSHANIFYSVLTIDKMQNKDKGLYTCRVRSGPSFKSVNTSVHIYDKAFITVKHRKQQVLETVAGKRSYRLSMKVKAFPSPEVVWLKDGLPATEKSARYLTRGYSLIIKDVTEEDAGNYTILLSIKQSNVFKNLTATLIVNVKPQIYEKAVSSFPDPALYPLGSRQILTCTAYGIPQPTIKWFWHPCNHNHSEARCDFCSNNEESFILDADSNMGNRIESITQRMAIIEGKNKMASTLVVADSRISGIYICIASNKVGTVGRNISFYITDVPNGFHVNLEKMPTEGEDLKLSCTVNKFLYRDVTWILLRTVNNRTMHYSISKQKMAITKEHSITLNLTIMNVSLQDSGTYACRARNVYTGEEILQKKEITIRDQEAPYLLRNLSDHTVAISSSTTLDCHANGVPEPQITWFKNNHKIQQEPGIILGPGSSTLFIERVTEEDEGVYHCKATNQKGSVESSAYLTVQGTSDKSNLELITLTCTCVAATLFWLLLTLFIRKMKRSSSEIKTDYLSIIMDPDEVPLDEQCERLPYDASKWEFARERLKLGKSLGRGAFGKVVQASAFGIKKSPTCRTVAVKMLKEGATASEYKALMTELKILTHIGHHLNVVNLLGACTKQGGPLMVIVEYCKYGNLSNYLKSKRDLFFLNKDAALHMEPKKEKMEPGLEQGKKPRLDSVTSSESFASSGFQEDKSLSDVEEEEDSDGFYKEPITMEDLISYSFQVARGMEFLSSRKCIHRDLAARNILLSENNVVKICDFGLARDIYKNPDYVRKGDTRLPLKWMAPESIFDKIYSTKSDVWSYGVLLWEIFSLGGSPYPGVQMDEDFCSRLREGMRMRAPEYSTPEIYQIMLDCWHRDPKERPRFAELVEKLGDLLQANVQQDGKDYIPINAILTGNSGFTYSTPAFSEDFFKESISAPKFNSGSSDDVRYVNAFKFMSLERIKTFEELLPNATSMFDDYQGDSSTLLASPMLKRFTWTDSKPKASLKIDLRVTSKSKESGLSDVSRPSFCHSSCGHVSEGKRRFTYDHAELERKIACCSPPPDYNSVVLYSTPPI

As to isotype control mAb (antibody), the VEGF-induced CD144 expression (% of cells), isotype control mAb-treated human melanoma cells was 57%; the VEGF-induced tube formation, average tube length, isotype control mAb-treated came to 86.5 µm; the VEGF-induced tube formation, numbers of tubes formed/microscopy field, isotype control mAb-treated (tubes/microscopy field) is 76.7.

“vascular endothelial growth factor (VEGF) (from UniProt P15692 27-191) (ligand)” yielded a VEGF-induced CD144 expression (% of cells), untreated human melanoma cells of 64%; a VEGF-induced tube formation, average tube length, untreated of 92.1 µm; a VEGF-induced tube formation, numbers of tubes formed/microscopy field, untreated (tubes/microscopy field) of 99.
